From the DeepSol protein solubility set come the findings set out here.

The nature of this data set: soluble on expression in E. coli; label from the status in PepcDB or PDB records.
In the case of “MSLKYKNLFFDLDDTIWAFSRNARDTFEEVYQKYSFDRYFDSFDHYYTLYQRRNTELWLEYGEGKVTKEELNRQRFFYPLQAVGVEDEALAERFSEDFFAIIPTKSGLMPHAKEVLEYLAPQYNLYILSNGFRELQSRKMRSAGVDRYFKKIILSEDLGVLKPRPEIFHFALSATQSELRESLMIGDSWEADITGAHGVGMHQAFYNVTERTVFPFQPTYHIHSLKELMNLLEGHHHHPPLIRIRAPSTSLRPHSSTTTTTTEIRLLTKPERKLSWLLPPLSNN”, the “soluble on expression in E. coli” value is “soluble”.

On to “MSLLANLPPLVTVFGGSGFVGRHVVRMLAKRGYRIRVAVRRPDLAGFLQPLGNVGQISFAQANLRYRDSIIKAVEDADHVVNCVGILAESGRNTFDAVQEFGAKAIAEAARDTGATLTHISAIGADANSQTGYGRTKGRAEAAIHSVLPGAVILRPSIIFGPEDDFFNKFAKMARNLPFLPLIGGGKTKFQPVYVEDVAEAVARSVDGKLKPGAIYELGGPDVMTFRDCLEAVLAATYRERSFVNLPFGVASMIGKLASLVPLITPPLTPDQVTMLKKDNVVSAEAEKKGLTLEGIGITPVRVASVLPSYMVQYRQHGQFSNAGKAAEGHHHHHH”, for which the “soluble on expression in E. coli” value is given as “soluble”. As to “MSLLLFQSLLRRGLLVAINFSPKVGEILECNFGNYPVSQNGPFSTTYYDGRIPPEMIKNRLVVVLNGKINGNAFIVVPLSTTRDHDKLKRGMHVEIASNVINDLQFFDQQIRWAKTDLVQQVSRNRLNRARTYRGYLNQCLPHELVADIQRAVIKSINAISLINEGHHHHHH”, the “soluble on expression in E. coli” value is listed as “not soluble”. Next, “MSLLLTNHIGYERLGPKKAIIQTEQPHLSSYTAQLICATSEQTVATFAVEEQGKVANWHQGYFYLIDFSSFTDSGDYFLQVEDSRSSTFTVGEHILLNQTLSDVIHYFKSQRCGGVFDQQDRQVPVLNANQTADVHGGWYDASGDVSKYLSHLSYANYLNPQQTPMVVWNILKGLSLLEGSEDIAAFTRTRLIEEALFGADFLVRMQNEKGFFYMTVFDKWSKDTAQREICAYETQLGHKFDDYQAGFRQGGGVAIAALAAASRLGVHGEYDQQKYRNAAENGYWHLKEHNTQYLNDGEENIIDEYCALLASVELFKATKETRYLEESRLWAQRLVARQMSDEQIQHFWSANQDGSRPYFHAAEAGLPTIALCEYLAIEDDSVQTESVKCIVNRACEFEIKISNKVTNPFGYPRQYVKGVNESKRDAFFVAHNNESGYWWQGENARLGSLATMAYLAQPHIASQEIQQQLSVFAQDALNWIVGLNPYDMCMLDGHGRNNPDYLPQYGFFNAKGGVCNGITGGFEDEEDIAFNPPAQKDDMLQNWRWGEQWIPHGAWYLLAIMSQAQHISQLATSKNIKEGHHHHHH”: “soluble”; “MSLLNRLRAFRERGWREVDAPTYAQAWQRFGGSVATHPLVVEQLAEMAGIPVRYLGWESAGELVAAIPTWGRHLALSKDVLKRRGKKGLYDLGNAELILPVAGDARIALRHAGRYLSALHERNIVTLRPQTEQLAFARAPEDFSKKFRYNQRREVRLVEEAGGQVRQADSFAPAEFAAMYLELFQRRWGFPATGAERMAEVFERLRELLRGSVLLLNDQPIAVQVLYRAEAPGWLSVEYINGGVDPQTREFSPGSVLSYLNTQAAWEDARALGKPLRYSFGRADREYKDRWCHPSPVFQVEGHHHHHH”: “soluble”.

On to “MSLLNSPLAERIRPQNLSEYLSQNHLVGERGTLRQHILNGTIPSLILWGPPGTGKTTLANIIAQESKRPFYTLSAINSGVKDVREVIDKAKSAGGLFTAKNPILFIDEIHRFSKSQQDSLLAAVEKGWVTLIGATTENPSFEVIPALLSRCQVYVLDAFAKADLEQLLHRAMKIDEVLSIKDITIQETEALLRISGGDARKLLNIFELVINSQPSGPIVITNELVFEQVQSNPARYDKTGEQHYDIISAFIKSIRGSDPNAAVYWLARMIEGGEDLKFIARRMLILASEDIGNANPTALIMANNTFQAVSTIGYPESRIILSQCAIYLATSIKSNASYLAIGQAQQIVKQTGDLPVPLGLRNAPTKLMKELGYGQEYKYAHDHPGNFAQFDFLPTEISGTKIFNPGNNPREQAQREFLEKRWKEHYDYKPSKGEGHHHHHH”, for which the “soluble on expression in E. coli” value is reported as “soluble”.

For the sequence “MSLLWSRCTLFLFLCPIRVRGREHIPGKGPFVVMANHQGACDIFMMYGYLGIPFKWVLKEGIRKLPFVGYACRSAGFVFVDDTRPSSIAHTMDQAKRVLAEGTSIFIFPEGSRTRNGRLARFKKGGFLMADELGVPIIPVSLDGSYRVLPSGKLIPRPHRLTLTIHPPLSVADFGERPLCISEAVRETSRRIASVLPEEMAATQSKEGHHHHHH”, the “soluble on expression in E. coli” value is “not soluble”. To “MSLMKLTKLFLATAISLGVSSAVLAADYDLKFGMNAGTSSNEYKAAEMFAKEVKEKSQGKIEISLYPSSQLGDDRAMLKQLKDGSLDFTFAESARFQLFYPEAAVFALPYVISNYNVAQKALFDTEFGKDLIKKMDKDLGVTLLSQAYNGTRQTTSNRAINSIADMKGLKLRVPNAATNLAYAKYVGASPTPMAFSEVYLALQTNAVDGQENPLAAVQAQKFYEVQKFLAMTNHILNDQLYLVSNETYKELPEDLQKVVKDAAENAAKYHTKLFVDGEKDLVTFFEKQGVKITHPDLVPFKESMKPYYAEFVKQTGQKGESALKQIEAINPEGGSHHHHHH” belongs “soluble”; to “MSLMKNILAIQSHVVYGHAGNSAAEFPMRRLGANVWPLNTVQFSNHTQYGKWTGCVMPPSHLTEIVQGIAAIDKLHTCDAVLSGYLGSAEQGEHILGIVRQVKAANPQAKYFCDPVMGHPEKGCIVAPGVAEFHVRHGLPASDIIAPNLVELEILCEHAVNNVEEAVLAARELIAQGPQIVLVKHLARAGYSRDRFEMLLVTADEAWHISRPLVDFGMRQPVGVGDVTSGLLLVKLLQGATLQEALEHVTAAVYEIMVTTKAMQEYELQVVAAQDRIAKPEHYFSATKLEGGSHHHHHH”, “soluble”; to “MSLNDSILEPKHRGNVREIAAIDLGSNSFHMIVARIVNGSIQVLSRLKQKVKLAEGLDENAVLNQEAITRGVNCLALFAERLQGFPMENVNVVGTYTLRRAVNNDEFLRQAAKVFPYPINIISGQTEAKTIYAGVCHTQPEKGRKLVIDIGGGSTEMIIGDDFTPLMAESRHMGCVSFATQFFTDGIISPENFQRARQSAVNKIEDLGLEYRKLGWQSVLGSSGTIKTVAQVIATNLDPNGTITAERLNALIEQTLQAKHFTELNINGLNQDRVDVFVPGLAILSAVFDVFHIQQMRYSDGALREGVIYSLEKNFQVADIRASTAEGHHHHHH”, “soluble”. To “MSLNDYSRQNFLDLNLFRGLGEDPAYHPPVLTDRPRDWPLDRWAEAPRDLGYSDFSPYQWRGLRMLKDPDTQAVYHDMLWELRPRTIVELGVYNGGSLAWFRDLTKIMGIDCQVIGIDRDLSRCQIPASDMENITLHQGDCSDLTTFEHLREMAHPLIFIDDAHANTFNIMKWAVDHLLEEGDYFIIEDMIPYWYRYAPQLLSEYLGAFRDVLSMDMLYANASSQLDRGVLRRVAAKQEGHHHHHH” belongs “soluble”; to “MSLNEDWPTIAFLVPMDRNHEYGRNYVSSLRKAAEEHHVNAFVMNSNYDASVQASQMKIAIAKKVDGIVIWPALYGAEQPMLIQAQRAGIPVDISNSQPPEDLDTSLYHAFTGPNDQRIGELQGKELAKLLGSKGTYVYIGGTPGNAAAINRQIGLEREMANHPDVKLLGSQPGNFDKNQAQTAASALISRFGNQIDALVTPDDIIASGAAQALDAAGMAGQVKLLGHNYAPVARSLLENGSMSTTLFQSPCWDSTHALTTMMDVLAGKDVPPVSYMPLPVVTKDNLDEFTPNGCLPEGYSEPATNEGHHHHHH”, “soluble”; to “MSLNEELIKTGDFAKMCAVTKKALYVYEAKGLLKPAVVKDNGYRYYRLEQVDQVATIRLLEKLGSSLQEVGDFFALKDLNERQKYLGKQQEAVEREMAELGKIKSSLEFFDQRISDLKQTGLKKWRLRLARKNTWKSVLLGMVFREGHHHHHH”, “not soluble”. Consider “MSLNEETRKKKKRPSLTTLYEGTMKEITSNENRYIEFLNFASRVHKYSFDEQLLLYAQKQDVHMVATFDIWKKLGRFVKRGSTAALLFDYTTQQRKYVFDISETGGEPLQVFDWQLLDNDKNDLLRYWNTYEKQSGTLVNWEDGIHAKIASYQKPIGDQIHPFFVKDIEVVAAYIIYQRTNTLIPEDLLLDVQSVLQIGKRDNTLLEIQHFANLTAKEFLQDVERILNNELKKERVLYHDRIKFEDELSRREWQPASRDREGHHHHHH”, for which the “soluble on expression in E. coli” value is “not soluble”. To “MSLNELPRPDMMFGLKVVLAATDFSARSDRAVRRAAALARQSGARLVIAHVVDDDQPEHIVAVEVELAESALADAIREHTYLAGLQCTPLVLLGTPFDAIVRAAHQQGADLCVVGSHRRAFLRDIFAGTTAERVIRNSTVPVLMANLDPALPYAKSLAPVDLTDCSAQALETARQLGLLQRTKLIVMHVYDAAAAGMLNYAGVDKTSLDDYLVDTRTDAVRDLVRFLEPLRLDDVDYSTVVKEGAGPATDIIEAATELRPDLVVIGTHARRGAVRLLLSSVTEEVLRRLQRDILVVPVRDAGSEGHHHHHH” belongs “soluble”; to “MSLNEQKAQQLLMFFREQAEKPLSVNELEEALNLEDAQEFKELVQVLNEMEEKGLLVRTRSNRYGVPEKMNLLRGVVQGHAKGFAFVIPEEEGHSDVYVSHVDLESAMNGDRVIVRLHPHSTGTRPEGKVIRILERGVSEVIGTYVDHQTYGLVVADDKRIPNDILIVNPEAQGLVDGHKVIVKITKYPEGRMSAEGEVISILGHKNDPGMDILSIIYKYGIPQAFPEEVLQQAQNIPDEIDAGEIKNRRDLRDEPLVTIDGADAKDLDDAVHVSRLPNGNFKLGVHIADVSYYVKEKSPIDLEAAERGTSVYLVDRVIPMIPHRLSNGICSLNPQVDRLTLSCEMEITRDGQVVNHEIFQSVIRTNERMTYHDVNKILVEKEEELRNRYELLVPMFEDMEELAAILRKKRFGRGAIDFDFKEAKVLVDEEGKPSDVVIRERGVAEKLIEEFMLAANETVAEHFHWLKLPFMYRIHEDPDSEKLGRFLEFITNFGYVVRGTANTVHPRALQKLLEEVRGEPEEQVISTVMLRSMQQAKYDPTSLGHFGLSTEFYTHFTSPIRRYPDLIVHRLIREYLIKGNVDEETQEKWRERLPEIARHCSEMERRAVDAERETDDVKKAQFMEDKIGETFTGIISGVTNFGIFVELENTIEGLVHVSYLTDDYYRYDEKHYAMIGERSGNVFRIGDEIEVRVINVNVEEASIDFEIVGMKPRKQRPDKSRPKVIEGGKRKKKENRGALALDGSKPKKKKKKKAFYENAPSAKRKKGKKRKREGHHHHHH”, “soluble”. Take “MSLNESEEKNSNSTYSFFFKNLSVTGFYEENCLFMTVKELFDNSIDALCNNKGDENIDEEGQGTQEKKIEIEIKEYGINSSFYEIICRDNGEGIEVKDLEKISEMFLTSKEKCITSGKFGIGLKTILLYSFKTAYGFLHIKIKVKKNKIWDFILVLDKNLNHTFVQNFKEYIDDKWEWTIEISVILKINNNYISDKKIHSYIKLFLLWKKNITVKYIHNPNGEQSIYTYSSHSDTSEENILSMLANNSINMIFKKDFLTSYNYDVNMYVNVRKSEKIIPYEHGHNIGFLFLIRYVNSMPLLRTSSSDCSITVDFRNFLKYYGPQFGIELPTIESRDEMILEELALPSCFDDLNKVANIFPVKRSEEGHHHHHH”: the “soluble on expression in E. coli” value was “soluble”.

For the sequence “MSLNFDSLLLDIDGTLILKGQPLPGAAEALSFARAQGLRLQLLTNTTAKMPEALAQELCQAGIEVVPDEIQTATTACVGYLQQHAQLKCHLLVPDSIRAAFNGILTDDTNPDVVVISDIGEAFDYATLNRCFRMLRGGARLIALQKNLFWFDRDGERLDCGAFIVGLEAAAQVQALVMGKPSPMFFEAALRKLDTCASRTLVVGDDVLTDCAGAKAVGASSLLVRTGKYDLALFDAHRHNVGAVIDGIADFPRWWASGNTADRHDEGHHHHHH”, the “soluble on expression in E. coli” value was “soluble”.
